From paper PMC10831263

Target: T1, his-tagged NCOA4 (383–522nd) recombinant protein, WT (human), Q13772
T1 chain: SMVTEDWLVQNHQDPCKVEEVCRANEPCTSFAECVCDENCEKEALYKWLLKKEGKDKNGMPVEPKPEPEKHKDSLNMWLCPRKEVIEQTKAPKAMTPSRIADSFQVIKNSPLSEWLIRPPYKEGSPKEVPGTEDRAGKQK
Test: nonreducing gel electrophoresis; purified his-tagged NCOA4 (383–522nd) WT or mutants on a nonreducing gel, with or without β-ME (10 mM) or DTT (5 mM); the reductants converted the dimer into monomers
Details: remark: other sources report otherwise

stoichiometry N: 2
B1: his-tagged NCOA4 (383–522nd) recombinant protein, WT, Q13772-1 383-522 (domain or fragment)
chain: SMVTEDWLVQNHQDPCKVEEVCRANEPCTSFAECVCDENCEKEALYKWLLKKEGKDKNGMPVEPKPEPEKHKDSLNMWLCPRKEVIEQTKAPKAMTPSRIADSFQVIKNSPLSEWLIRPPYKEGSPKEVPGTEDRAGKQK
